# Experimental data reported in paper PMC7494017.
# How the values were obtained:
# [1] = molecular target: SAV1 WW12 (aa E198-A268) (mouse) (UniProt Q8VEB2); experiment: ITC
# [2] = molecular target: SAV1 S245D-WW12ex (mouse); experiment: SEC-MALS
# [3] = molecular target: SAV1 Y273E-WW12ex (mouse); experiment: ITC
substance,measurement,setting,value
Dendrin PY23 with the PPPY motif changed into PPDY (from UniProt Q80TS7 222-241) (domain or fragment),fold weakening of binding against WT dendrin PY23,[1],18 fold
SAV1 S245D-WW12ex (domain or fragment),stoichiometry N,[2],2
Dendrin PY23 (aa D222-G241) (from UniProt Q80TS7 222-241) (domain or fragment),Kd,[3],3.8 µM
